Measured values as given in patent US20100189695A1, “IRAK-1 AS REGULATOR OF DISEASES AND DISORDERS” (priority 2008, published 2010).

Target: NFAT (in Hela cells) (human)
Experiment: cell-based or functional assay

NFAT-luciferase reporter activity in Hela cells: 80 % reduction
Substance: Flag tagged full length wild type human IRAK-1 (pFlag-IRAK-1)
